The values below are quoted from earlier work in patent US10716757B2, “Liposomal formulation for the oral hepatic delivery of drugs” (Universität Heidelberg, priority 2015, dated 2020).

For data set [1] the following is noted: Myrcludex B per se, no liposomes.
The conditions of data set [2]: film method followed by extrusion, reference [17].

In the case of Myr-HBVpreS/2-48 [Myrcludex B], the oral bioavailability in data set [1] is below 1%. As to `C[C@@H](O)[C@@H]1NC(=O)[C@H](CCCCN)NC(=O)[C@@H](Cc2c[nH]c3ccccc23)NC(=O)[C@H](Cc2ccccc2)NC(=O)[C@@H](NC(=O)[C@H](N)Cc2ccccc2)CSSC[C@@H](C(=O)N[C@H](CO)[C@@H](C)O)NC1=O` [octreotide], in data set [2], the encapsulation efficiency was 13.0 % (m/m).
